Laboratory results taken from patent publication US20110124841A1 (published 2011).
MPEG 20 kDa = 20 kDa MPEG from MPEG iodoacetamide

What was measured:
[1] = molecular target: SG N-protein (SEQ ID NO:4); assay: cell-based or functional assay
[2] = molecular target: SB N-protein (SEQ ID NO:2); assay: cell-based or functional assay

Row | Binder | efficiency of the trans-splicing, from SDS-PAGE protein band intensity; room temperature, molar ratio of C-protein to N-protein approximately 1 (Lane 9) [1] [%] | efficiency of the trans-splicing, from SDS-PAGE protein band intensity; room temperature, molar ratio of C-protein to N-protein approximately 5 (Lane 13) [1] [%] | efficiency of the trans-splicing reaction, from SDS-PAGE protein band intensity; molar ratio approximately 1 [2] [%]
1 | PEGylated SG C-protein (residues 388 to 449 of SEQ ID NO:3) (other) GTLEHHHHHHGSEAVLNYNHRIVNIEAVSETIDVYDIEVPHTHNFALASGVFVHNSAGGC(MPEG 20 kDa)GP | ~50 | ~90 | –
2 | PEGylated SB C-protein (residues 388 to 453 of SEQ ID NO:1) (other) GTLEHHHHHHGSPEIEKLSQSDIYWDPIVSITETGVEEVFDLTVPGPRNFVANDIIVHNSGGGC(MPEG 20 kDa)GP | – | – | ~30
